Tests used:
Test in all cases: cell-based or functional assay
Soli C1 = Soli C1 (Solenopsis invicta)
Soli E2 = biological target: T1, Soli E2 (Solenopsis invicta)
T1 chain: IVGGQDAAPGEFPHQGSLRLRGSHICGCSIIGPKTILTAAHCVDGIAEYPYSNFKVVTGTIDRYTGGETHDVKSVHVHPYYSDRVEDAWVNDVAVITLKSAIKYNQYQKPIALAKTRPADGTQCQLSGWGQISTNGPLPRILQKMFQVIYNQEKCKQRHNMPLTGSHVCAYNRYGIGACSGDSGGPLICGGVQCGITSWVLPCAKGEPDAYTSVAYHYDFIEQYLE

Soli C2 = Soli C2 (Solenopsis invicta)
Soli E1 = Soli E1 (Solenopsis invicta)
Sequence of Soli E1 (Solenopsis invicta) (main, as listed by the source): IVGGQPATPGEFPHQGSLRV

Sequence of Soli C2 (Solenopsis invicta) (main, as listed by the source): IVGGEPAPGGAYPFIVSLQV
Sequence of Soli C1 (Solenopsis invicta) (Q7SIG2 other isoform, or with tags, fused parts or gaps): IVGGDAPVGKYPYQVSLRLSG

B1: Lima Bean Trypsin Inhibitor (other, UniProt P01056 1-83, looked up)
chain: SGHHEHSTDXPSXSSKPCCXHCACTKSIPPQCRCTDLRLDSCHSACKSCICTLSIPAQCVCXXIXDFCYEPCKSSHSDDDNNN
modifications: not fully specified
- IC50 (Soli C1): 18.4 nM
- IC50 (Soli E2): > 50 nM
- IC50 (Soli C2): 1.46 nM
- IC50 (Soli E1): > 50 nM

From US6399759 (UNIVERSITY OF GEORGIA RESEARCH FOUNDATION, dated 2002)
